Positions count from the first letter of the chain named.

B1: HA1-10-34 (TCR, V domains shown)
Valpha: GENVEQHPSTLSVQEGDSAVIKCTYSDSASNYFPWYKQELGKRPQLIIDIRSNVGEKKDQRIAVTLNKTAKHFSLHITETQPEDSAVYFCAARGPGTYKYIFGTGTRLKVLA
Vbeta: DTGVSQDPRHKITKRGQNVTFRCDPISEHNRLYWYRQTLGQGPEFLTYFQNEAQLEKSRLLSDRFSAERPKGSFSTLEIQRTEQGDSAMYLCASVAGTVYNEQFFGPGTRLTVL
B2: HA1-6-2 (TCR, V domains shown)
Valpha: AQTVTQSQPEMSVQEAETVTLSCTYDTSESNYYLFWYKQPPSRQMILVIRQEAYKQQNATENRFSVNFQKAAKSFSLKISDSQLGDTAMYFCALYSGAGSYQLTFGKGTKLSVIP
Vbeta: B1 Vbeta with V95F, A96E, G97L, T98A, V99G, Y100G, N101Y
B3: HA1-10-104 (TCR, V domains shown)
Valpha: AQSVTQPDIHITVSEGASLELRCNYSYGATPYLFWYVQSPGQGLQLLLKYFSGDTLVQGIKGFEAEFKRSQSSFNLRKPSVHWSDAAEYFCAVANAGGTSYGKLTFGQGTILTVHP
Vbeta: NAGVTQTPKFRVLKTGQSMTLLCAQDMNHEYMYWYRQDPGMGLRLIHYSVGEGTTAKGEVPDGYNVSRLKKQNFLLGLESAAPSQTSVYFCASGRSGTKFFGPGTRLTVL
B4: HA1-1-12 (TCR, V domains shown)
Valpha: EDQVTQSPEALRLQEGESSSLNCSYTVSGLRGLFWYRQDPGKGPEFLFTLYSAGEEKEKERLKATLTKKESFLHITAPKPEDSATYLCAVHLNAGGTSYGKLTFGQGTILTVHP
Vbeta: DAGVTQSPTHLIKTRGQHVTLRCSPISGHKSVSWYQQVLGQGPQFIFQYYEKEERGRGNFPDRFSARQFPNYSSELNVNALLLGDSALYLCASSFDRGTNGYTFGSGTRLTVV
B5: HA1-TSC-100 (TCR, V domains shown)
Valpha: KQEVTQIPAALSVPEGENLVLNCSFTDSAIYNLQWFRQDPGKGLTSLLLIQSSQREQTSGRLNASLDKSSGRSTLYIAASQPGDSATYLCAVRGGTSGTYKYIFGTGTRLKVLA
Vbeta: DTGVSQDPRHKITKRGQNVTFRCDPISEHNRLYWYRQTLGQGPEFLTYFQNEAQLEKSRLLSDRFSAERPKGSFSTLEIQRTEQGDSAMYLCASSRTAGDTQYFGPGTRLTVL
B6: HA1-9-105 (TCR, V domains shown)
Valpha: GENVEQHPSTLSVQEGDSAVIKCTYSDSASNYFPWYKQELGKRPQLIIDIRSNVGEKKDQRIAVTLNKTAKHFSLHITETQPEDSAVYFCAVGQNFVFGPGTRLSVLP
Vbeta: B5 Vbeta with R96P, A98T, G99I, D100N, T101E, Q102A, Y103F, P106Q, L113V
B7: HA1-2-21 (TCR, V domains shown)
Valpha: GQQVMQIPQYQHVQEGEDFTTYCNSSTTLSNIQWYKQRPGGHPVFLIQLVKSGEVKKQKRLTFQFGEAKKNSSLHITATQTTDVGTYFCAGPSGNTPLVFGKGTRLSVIA
Vbeta: B5 Vbeta with R96L, T97L, A98T, G99T, D100N, T101E, Y103F
B8: HA1-9-46 (TCR, V domains shown)
Valpha: GENVEQHPSTLSVQEGDSAVIKCTYSDSASNYFPWYKQELGKRPQLIIDIRSNVGEKKDQRIAVTLNKTAKHFSLHITETQPEDSAVYFCAASIMRFGAGTRLTVKP
Vbeta: B5 Vbeta with D7N, R96L, T97S, A98V, G99V, T101E, Y103F
B9: HA1-10-93 (TCR, V domains shown)
Valpha: B8 Valpha with A91P, A92I, S93R, I94Q, M95F, R96Y, A99T, R102S, K106I
Vbeta: B5 Vbeta with R96L, T97V, A98V, G99V
B10: HA1-10-26 (TCR, V domains shown)
Valpha: GENVEQHPSTLSVQEGDSAVIKCTYSDSASNYFPWYKQELGKRPQLIIDIRSNVGEKKDQRIAVTLNKTAKHFSLHITETQPEDSAVYFCAASGLGSGAGSYQLTFGKGTKLSVIP
Vbeta: B5 Vbeta with R96L, T97L, D100E, T101K, Q102L, Y103F, P106S, R109Q, T111S
B11: HA1-2-23 (TCR, V domains shown)
Valpha: B5 Valpha with G94P, G95T
Vbeta: B5 Vbeta with S95I, R96L, T97V, A98G, D100T, T101E, Q102A, Y103F, P106Q, L113V
B12: HA1-Fred Hutch (TCR, V domains shown)
Valpha: KQEVTQIPAALSVPEGENLVLNCSFTDSAIYNLQWFRQDPGKGLTSLLLIQSSQREQTSGRLNASLDKSSGRSTLYIAASQPGDSATYLCAVIGLGGTYKYIFGTGTRLKVLA
Vbeta: B5 Vbeta with R96L, T97V, A98K, D100E, T101K, Q102L, Y103F, P106S, R109Q, T111S

One test deals with T1, HA-1 (HMHA1, also known as ARHGAP45; R139H polymorphism, genotype RS_1801284 A/G or A/A) peptide on … (human).
T1 peptide: VLHDDLLEA
Put plainly: multimer staining.
Consider B1, for which the binding result is given as “recognises”.
On the same count and under the same terms, then B2, with “recognises”.
Still for that read-out and setting: then B3, with “recognises”; and B4, with “recognises”; and B5, with “recognises”.
The same measure, in the same setting: then B6, with “recognises”; and B7, with “recognises”; and B8, with “recognises”.
Consider B9, for which the binding result is reported as “recognises”.
Regarding B10, the binding result is listed as “recognises”.
On the same count and under the same terms, to B11 belongs “recognises”.

The target in another test is T1, HA-1 (HMHA1, also known as ARHGAP45; …). Put plainly: killing.
For B12, the binding result is reported as “recognises”.

A further test addresses T2, CCDC114 peptide on HLA-A*02:01 (human).
T2 peptide: SMIDDLLGV
The test is described as follows: activation reporter or marker.
As for B5, the binding result is given as “no recognition”.
On the same count and under the same terms, to B12 belongs “recognises”.

The values are drawn from patent publication US20230398217A1 (published 2023).
